Source: patent publication US20240091374A1 (AbbVie / Abbott, published 2024)

Target: T1, Seizure-related homolog 6 (SEZ6) (UniProt Q53EL9 20-994, limits assumed)
T1 sequence (looked up): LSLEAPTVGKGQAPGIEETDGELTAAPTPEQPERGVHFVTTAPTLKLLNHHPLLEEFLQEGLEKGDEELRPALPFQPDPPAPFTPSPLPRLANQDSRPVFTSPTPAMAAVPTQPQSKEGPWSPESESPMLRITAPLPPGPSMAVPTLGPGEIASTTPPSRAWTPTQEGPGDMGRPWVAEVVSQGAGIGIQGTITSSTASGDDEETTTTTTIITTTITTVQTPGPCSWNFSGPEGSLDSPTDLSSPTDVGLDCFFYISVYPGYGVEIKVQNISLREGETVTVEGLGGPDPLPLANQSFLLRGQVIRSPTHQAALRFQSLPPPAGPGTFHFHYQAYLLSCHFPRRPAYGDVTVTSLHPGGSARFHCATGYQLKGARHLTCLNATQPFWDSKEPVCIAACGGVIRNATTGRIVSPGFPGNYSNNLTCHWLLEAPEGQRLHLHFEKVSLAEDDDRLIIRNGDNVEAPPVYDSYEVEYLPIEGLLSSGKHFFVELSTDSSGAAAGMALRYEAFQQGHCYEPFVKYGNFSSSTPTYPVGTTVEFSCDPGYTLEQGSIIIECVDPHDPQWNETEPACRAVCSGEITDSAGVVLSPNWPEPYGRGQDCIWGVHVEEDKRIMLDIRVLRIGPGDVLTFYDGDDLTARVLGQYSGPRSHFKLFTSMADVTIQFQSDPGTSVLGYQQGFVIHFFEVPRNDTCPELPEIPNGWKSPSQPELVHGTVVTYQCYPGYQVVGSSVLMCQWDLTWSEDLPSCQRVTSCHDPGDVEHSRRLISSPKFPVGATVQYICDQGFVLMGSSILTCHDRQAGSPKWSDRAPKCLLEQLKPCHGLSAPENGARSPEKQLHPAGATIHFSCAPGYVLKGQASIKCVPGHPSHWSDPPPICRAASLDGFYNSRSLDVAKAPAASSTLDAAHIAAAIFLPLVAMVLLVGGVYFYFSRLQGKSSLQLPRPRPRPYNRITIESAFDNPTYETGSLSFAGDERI
Experiment: cell-based or functional assay

B1: ADC-1 (anti-SEZ6 antibody Ab conjugated to TOP1i linker drug LD1, formula (IV), DAR about 6) (antibody, V domains shown)
VH: EVQLVQSGAEVKKPGESLKISCKGSGYSFTSSWINWVRQMPGKGLEWMGRIYPGEGDTNYNGNFEGQVTISADKSISTAYLQWSSLKASDTAMYYCTRGLVMDYWGQGTLVTVSS
VL: EIVLTQSPATLSLSPGERATLSCRASQSVDYNGISYMHWYQQKPGQAPRLLIYAASNVQSGIPARFSGSGSGTDFTLTISSLEPEDFAVYYCQQSIEDPPTFGGGTKVEIKR
modifications: linker drug LD1 (Example 1J, formula (III)) on sulfhydryl groups of cysteine residues after global reduction; positions not given; linker drug LD1 (Example 1J, formula (III)) on sulfhydryl groups of cysteine residues after global reduction; DAR of about 6 over the whole antibody, predominant species n = 6; positions not given
**Q.** Which “growth inhibitory IC50, CellTiter-Glo cell viability, 10 days, COR-L95 cells (SEZ6 mRNA positive)” value does the source give for B1 here?
**A.** 0.33 nM

**Q.** And the “growth inhibitory IC50, CellTiter-Glo cell viability, 10 days, NCI-H146 cells (SEZ6 mRNA positive)” value?
**A.** 0.05 nM

**Q.** What about the “growth inhibitory IC50, CellTiter-Glo cell viability, 10 days, NCI-H524 cells (SEZ6 mRNA positive)” value of the same binder?
**A.** 0.33 nM

**Q.** What about the “growth inhibitory IC50, CellTiter-Glo cell viability, 10 days, NCI-H526 cells (SEZ6 mRNA positive)” value of the same binder?
**A.** 0.1 nM

**Q.** What about the “growth inhibitory IC50, CellTiter-Glo cell viability, 10 days, NCI-H1963 cells (SEZ6 mRNA positive)” value of the same binder?
**A.** 4.63 nM

**Q.** What about the “growth inhibitory IC50, CellTiter-Glo cell viability, 10 days, row without a cell line label below COR-L95 (taken as a second COR-L95 value)” value of the same binder?
**A.** 0.29 nM
